Results from PMC8718552 (Frontiers in Immunology, 2021).

Legend:
[1] = molecular target: SARS-CoV-2 ORF8 (S84) (71–76) A mutant (SARS-CoV-2) (UniProt P0DTC8); assay: SEC
[2] = molecular target: SARS-CoV-2 ORF8 (S84) Ig-like domain (SARS-CoV-2) (UniProt P0DTC8); assay: SEC
[3] = molecular target: SARS-CoV-2 ORF8 (S84) Ig-like domain (SARS-CoV-2) (UniProt P0DTC8); assay: non-reducing SDS-PAGE
[4] = molecular target: CD14 on human CD14+ monocytes (UniProt P08571); assay: flow cytometry on cells
[5] = molecular target: the molecule itself; assay: non-reducing SDS-PAGE

Chain of CD14 on human CD14+ monocytes (P08571 20-345): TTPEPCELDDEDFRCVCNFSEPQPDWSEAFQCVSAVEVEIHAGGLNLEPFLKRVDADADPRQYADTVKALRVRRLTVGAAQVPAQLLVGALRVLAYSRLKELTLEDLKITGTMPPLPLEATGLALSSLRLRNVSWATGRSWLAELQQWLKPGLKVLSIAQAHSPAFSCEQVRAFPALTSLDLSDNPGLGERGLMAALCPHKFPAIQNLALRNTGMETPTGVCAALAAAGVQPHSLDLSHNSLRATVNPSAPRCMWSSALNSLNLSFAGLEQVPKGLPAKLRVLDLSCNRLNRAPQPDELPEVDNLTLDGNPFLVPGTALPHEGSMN

Question: How did the stoichiometry N [1] turn out when “SARS-CoV-2 ORF8 (S84) (71–76) A mutant (from UniProt P0DTC8 16-121) (domain or fragment)” was run?
Answer: The stoichiometry N was 2.

Question: What does the source list for “SARS-CoV-2 ORF8 (S84) Ig-like domain (from UniProt P0DTC8 16-121) (domain or fragment)”?
Answer: stoichiometry N [2]: 2; stoichiometry N [3]: 2

Question: Which response ([4]; parent: 48.7) does the source give for “SARS-CoV-2 ORF8 (L84) Ig-like domain (from UniProt P0DTC8) L84S” here?
Answer: Its response is 37.7%.

Question: What about the response ([4]; parent: 51.8) of the same molecule?
Answer: Its response is 32.7%.

Question: And the response ([4]; parent: 54.1)?
Answer: Its response is 32.7%.

Question: What about the response ([4]; parent: 68.0) of the same molecule?
Answer: The response was 47.9%.

Question: And the response ([4]; parent: est. 56, read off a plot)?
Answer: The response was 38%.

B1: SARS-CoV-2 ORF8 (L84) (71–76) A (domain or fragment)
chain: FHQECSLQSCTQHQPYVVDDPCPIHFYSKWYIRVGARKSAPLIELCVDEAGSKSPAAAAAAGNYTVSCLPFTINCQEPKLGSLVVRCSFYEDFLEYHDVRVVLDFI
Question: Does B1 bind [5]?
Answer: Result: binds
